According to article PMC2671584:

Key:
Assay in all cases: SPR; BIAcore 3000; ECM proteins immobilised on CM5 chips, endostatin injected at 0, 10, 50, 200 and 400 nM; 0.02 M Tris-HCl, 0.11 M NaCl, 0.05% P-20; 25 °C; flow 20 μl/min; global fit to the 1:1 Langmuir model; triplicates
[1] = biological target: recombinant microfibrillar component fibulin-1 (UniProt Q08879)
[2] = biological target: mouse laminin-1-nidogen-1 complex (mouse) (UniProt P19137)
[3] = biological target: mouse perlecan (mouse) (UniProt Q05793)
UniProt Q05793, sequence (Q05793 22-3707): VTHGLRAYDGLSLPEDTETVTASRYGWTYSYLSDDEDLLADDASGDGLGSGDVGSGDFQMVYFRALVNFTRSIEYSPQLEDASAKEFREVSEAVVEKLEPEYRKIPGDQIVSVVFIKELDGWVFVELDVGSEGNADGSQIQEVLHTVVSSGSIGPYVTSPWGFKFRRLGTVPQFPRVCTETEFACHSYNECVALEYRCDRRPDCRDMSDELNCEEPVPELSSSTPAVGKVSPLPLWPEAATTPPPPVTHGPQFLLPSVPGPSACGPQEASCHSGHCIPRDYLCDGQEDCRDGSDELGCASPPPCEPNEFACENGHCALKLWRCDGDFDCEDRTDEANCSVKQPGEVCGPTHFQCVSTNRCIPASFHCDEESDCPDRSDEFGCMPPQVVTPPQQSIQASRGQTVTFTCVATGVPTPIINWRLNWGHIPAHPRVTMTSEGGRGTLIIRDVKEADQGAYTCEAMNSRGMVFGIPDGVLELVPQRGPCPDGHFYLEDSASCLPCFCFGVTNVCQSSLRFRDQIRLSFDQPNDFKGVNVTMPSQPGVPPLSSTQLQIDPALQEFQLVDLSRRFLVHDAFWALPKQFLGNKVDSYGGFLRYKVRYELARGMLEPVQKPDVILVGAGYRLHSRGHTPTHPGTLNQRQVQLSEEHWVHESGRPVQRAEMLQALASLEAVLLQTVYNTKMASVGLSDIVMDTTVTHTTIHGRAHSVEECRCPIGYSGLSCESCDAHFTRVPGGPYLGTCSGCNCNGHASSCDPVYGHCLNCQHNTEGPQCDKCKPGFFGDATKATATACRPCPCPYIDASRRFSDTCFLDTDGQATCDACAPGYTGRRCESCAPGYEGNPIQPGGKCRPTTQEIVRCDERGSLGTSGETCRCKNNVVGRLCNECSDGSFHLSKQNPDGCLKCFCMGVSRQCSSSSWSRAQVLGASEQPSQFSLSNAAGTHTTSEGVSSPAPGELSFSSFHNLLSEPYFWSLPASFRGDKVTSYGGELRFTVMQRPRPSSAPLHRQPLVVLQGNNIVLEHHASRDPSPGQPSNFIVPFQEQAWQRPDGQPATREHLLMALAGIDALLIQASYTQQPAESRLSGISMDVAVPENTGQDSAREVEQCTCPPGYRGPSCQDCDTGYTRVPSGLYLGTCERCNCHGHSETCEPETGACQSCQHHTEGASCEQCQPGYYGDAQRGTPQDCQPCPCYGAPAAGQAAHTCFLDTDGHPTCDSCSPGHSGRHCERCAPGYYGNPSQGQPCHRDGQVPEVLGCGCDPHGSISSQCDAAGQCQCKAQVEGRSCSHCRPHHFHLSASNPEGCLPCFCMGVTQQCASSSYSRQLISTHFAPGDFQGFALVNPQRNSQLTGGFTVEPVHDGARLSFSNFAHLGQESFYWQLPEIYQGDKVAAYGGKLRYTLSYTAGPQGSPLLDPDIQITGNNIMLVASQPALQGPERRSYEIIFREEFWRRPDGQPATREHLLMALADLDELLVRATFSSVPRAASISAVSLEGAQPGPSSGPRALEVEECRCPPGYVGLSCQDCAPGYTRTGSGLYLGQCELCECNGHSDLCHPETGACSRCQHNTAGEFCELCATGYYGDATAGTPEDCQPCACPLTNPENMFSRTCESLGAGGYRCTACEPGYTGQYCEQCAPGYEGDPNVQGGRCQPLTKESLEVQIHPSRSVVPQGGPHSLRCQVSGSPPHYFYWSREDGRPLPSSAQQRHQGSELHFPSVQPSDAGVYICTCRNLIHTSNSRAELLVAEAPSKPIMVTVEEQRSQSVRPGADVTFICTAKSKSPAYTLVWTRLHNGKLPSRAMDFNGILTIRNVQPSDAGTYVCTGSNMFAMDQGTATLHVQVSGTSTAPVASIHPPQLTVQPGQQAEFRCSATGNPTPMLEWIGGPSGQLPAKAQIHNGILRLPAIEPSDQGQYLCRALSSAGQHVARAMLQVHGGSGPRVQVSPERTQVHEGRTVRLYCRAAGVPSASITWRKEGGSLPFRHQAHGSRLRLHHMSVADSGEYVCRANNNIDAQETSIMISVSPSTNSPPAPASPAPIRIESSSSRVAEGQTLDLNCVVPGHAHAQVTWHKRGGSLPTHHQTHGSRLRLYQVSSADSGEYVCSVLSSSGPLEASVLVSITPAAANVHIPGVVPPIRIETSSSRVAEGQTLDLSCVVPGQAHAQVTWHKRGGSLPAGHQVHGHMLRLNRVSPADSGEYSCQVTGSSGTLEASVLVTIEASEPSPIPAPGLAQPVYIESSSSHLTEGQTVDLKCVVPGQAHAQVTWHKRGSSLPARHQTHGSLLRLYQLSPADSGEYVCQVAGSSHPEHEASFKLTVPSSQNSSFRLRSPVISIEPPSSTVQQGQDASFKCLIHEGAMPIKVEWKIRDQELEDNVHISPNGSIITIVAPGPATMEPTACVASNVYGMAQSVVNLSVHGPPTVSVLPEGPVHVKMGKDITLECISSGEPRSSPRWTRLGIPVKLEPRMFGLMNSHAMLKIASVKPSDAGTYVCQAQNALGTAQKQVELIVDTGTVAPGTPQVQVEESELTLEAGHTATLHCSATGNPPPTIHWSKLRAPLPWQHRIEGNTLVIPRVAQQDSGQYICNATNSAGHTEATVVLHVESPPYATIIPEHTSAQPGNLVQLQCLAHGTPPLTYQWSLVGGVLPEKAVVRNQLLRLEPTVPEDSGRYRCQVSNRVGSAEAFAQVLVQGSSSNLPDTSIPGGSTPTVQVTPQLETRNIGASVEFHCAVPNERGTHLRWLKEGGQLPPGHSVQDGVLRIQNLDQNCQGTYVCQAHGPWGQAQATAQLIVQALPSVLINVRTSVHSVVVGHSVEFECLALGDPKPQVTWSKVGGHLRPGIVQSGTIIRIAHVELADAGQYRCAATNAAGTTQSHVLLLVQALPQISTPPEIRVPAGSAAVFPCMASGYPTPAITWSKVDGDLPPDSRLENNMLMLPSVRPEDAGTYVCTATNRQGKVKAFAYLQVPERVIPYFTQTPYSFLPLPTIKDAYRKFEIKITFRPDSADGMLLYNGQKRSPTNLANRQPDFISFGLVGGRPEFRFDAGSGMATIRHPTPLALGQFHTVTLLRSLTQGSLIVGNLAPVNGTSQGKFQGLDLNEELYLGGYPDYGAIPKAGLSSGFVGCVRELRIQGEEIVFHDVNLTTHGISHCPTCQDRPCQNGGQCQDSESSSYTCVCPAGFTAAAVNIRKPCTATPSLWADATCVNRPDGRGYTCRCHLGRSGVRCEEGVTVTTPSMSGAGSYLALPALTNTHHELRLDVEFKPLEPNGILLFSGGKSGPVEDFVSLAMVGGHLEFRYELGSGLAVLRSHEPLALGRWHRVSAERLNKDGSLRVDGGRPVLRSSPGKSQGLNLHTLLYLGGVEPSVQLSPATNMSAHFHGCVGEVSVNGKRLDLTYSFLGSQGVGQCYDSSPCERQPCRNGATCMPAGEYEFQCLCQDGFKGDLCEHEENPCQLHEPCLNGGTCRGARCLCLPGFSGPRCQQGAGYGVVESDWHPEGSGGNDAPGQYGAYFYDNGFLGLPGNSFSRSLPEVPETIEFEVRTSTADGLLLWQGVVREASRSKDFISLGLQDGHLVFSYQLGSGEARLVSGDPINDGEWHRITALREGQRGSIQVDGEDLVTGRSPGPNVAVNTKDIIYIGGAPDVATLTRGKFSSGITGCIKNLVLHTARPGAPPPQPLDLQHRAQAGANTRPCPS

UniProt Q08879, sequence (Q08879 30-705): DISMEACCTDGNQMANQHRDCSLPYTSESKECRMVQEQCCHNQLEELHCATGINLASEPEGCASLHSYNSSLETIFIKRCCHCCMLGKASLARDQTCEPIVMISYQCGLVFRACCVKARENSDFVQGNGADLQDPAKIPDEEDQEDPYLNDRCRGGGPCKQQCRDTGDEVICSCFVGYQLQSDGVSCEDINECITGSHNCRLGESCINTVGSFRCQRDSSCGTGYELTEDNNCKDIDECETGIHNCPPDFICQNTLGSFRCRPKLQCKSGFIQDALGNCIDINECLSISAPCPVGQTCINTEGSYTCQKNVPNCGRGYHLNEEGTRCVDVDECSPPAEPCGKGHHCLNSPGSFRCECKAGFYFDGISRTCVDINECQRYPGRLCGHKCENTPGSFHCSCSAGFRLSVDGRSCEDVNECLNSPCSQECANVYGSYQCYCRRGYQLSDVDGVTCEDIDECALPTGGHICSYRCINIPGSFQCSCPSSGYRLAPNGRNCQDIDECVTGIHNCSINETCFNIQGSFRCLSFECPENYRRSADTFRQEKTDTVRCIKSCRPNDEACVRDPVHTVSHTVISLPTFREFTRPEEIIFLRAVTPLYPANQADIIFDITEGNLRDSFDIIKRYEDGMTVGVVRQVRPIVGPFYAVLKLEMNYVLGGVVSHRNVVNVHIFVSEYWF

Row | Substance | Kd [1] [nM] | Kd [2] [nM] | Kd [3] [nM]
1 | p.A1381T endostatin (mutated endostatin domain, c.3601G>A) (domain or fragment) | 6.95 | 6.17 | 5.19
2 | wild type human endostatin (endostatin domain of type XVIII collagen) (domain or fragment) | 3.1 | 3.48 | 5.53
